Data: the domain aggregation screens of Martell et al. (2025)

Experiment: soluble fraction after stress (log2 fold change); higher = more stays soluble; pooled small domains, quantitative proteomics
Conditions: stress: pH 4
Summary of the method: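 Aggregation propensity is estimated from the fold change in each domain's soluble amount after acid stress. Pooled small-domain libraries were stressed at pH 4, and higher log2 values mean more stayed soluble.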

Sequence | soluble fraction (log2)
HMDDNRSLSDLAQQVFKRENIQVSRDTLSLLVSRLGSDRAVSRQEIEKLALFAGSNGKLTEEDIHNALG | -0.195
HMDDPISSMVNRIRLAFGLSVTDLAAVLGVERPTIYSWLKDGSTPAPARLTRVRQVLSLADTW | ≥ 0.43
HMDDPITVAYRETEDAIAQVQREGFPVEMPPANSYIRRIQHELAGRFNLDSESYGDEPERRVRIRPQQ | -0.92
HMDDPTVILFDPKNGQRKIVKWKAGLTLYSARRSAGISSAAEATIQRAGKSLSGRTATALEPGDVIRW | 0.203
HMDDSSLFGRHTGIGFIVDDIDSGYQTLLAKGVSFEMPPTEQPWGGILALMKDPDGNIFYLD | -0.488
HMDDTRLLSEIGLSQRVLNALRARGIERVGQVLAMRPDQLLGIRNFGPRALQELRERLQENGYTEGPLFSG | -0.252
HMDDVIDVYATYDVSPTNQISNIKLYSDAAHANPVTGEAGKSYNDITEGHPGYQFRWSGTTWVPI | 0.0332
HMDDVIEVEGKVVEVLPNTKFIVELANSHKITAHISGKLRMNYIRIMKGDNVTVEMSPYDLTKGRIIWRS | -0.167
HMDDVVVLPFTAEFARMSSDDFVREILVGKIGMKRFVVGYNHRFGSGQQGDFASLQRMQGELGFVAVRVG | -0.479
HMDDVYMVPVKDIAINDLKQEFEKLGIPNIQNTIPDKDLNFFIVRKDDLALVNYAIEKTMER | -0.523
HMDEAETELIRRMVSEHPPTTKRERDIVQMRLRGYLFVEIGEAYGISFQRAAQIYNAAVEKIKEYWD | -0.454
HMDEEQIASRRALIMRAAREIMETQGMEALSIRKIAAMIQQTPGIIYHYFSGKEELMLAVVQEGYH | -0.219
HMDEFAGSAKPLADGAAPAGYDVKGNKDSMKYHEPGGRWYDATVAEVWFKTAADAEAAGFVKAGA | -0.266
HMDEFHLSERERQILNLLVLGHTYKHIASDLNIAYATVNKHVSNVYAKLRVQSASEAVALAIRKGL | -0.58
HMDEFTIILEDAGSQKIAVIKEVRVLNSSLGLKEAKDLVDATPATIMEKADKATADKAKAAFEAAGAKVTI | -0.75
HMDEIDYSKYSITTSNRIINIDGVQSKVELFDVSGRSIQSTMVTGKFSSRPLNAGFYIIHVDGYSVKVSV | -1.19
HMDELIKQVANYIINNRATINETAGAFGKSVSSIKKYINDADKLQRIDFELYQKVKEVQKIVELNGQI | -0.269
HMDEMEFQKYVDQNLKQKGISLTAEAKAELLLRLGGDTMLLHSAIEKLDLYGEKNLNLNDIKHLVSLNSDV | 0.0232
HMDENMQRYNTMEEIKKEFPYAEDTVRKLIAMGAIRGGGKVDANGDPADMDLSRDMLRMMVFNDRAGAYG | -0.761
HMDEPGTGFKWREDVLLRVMEANGIDTSHRDDFVRHAVKFDNDDNLYLKKAEIEDAAAAWVSEHS | -1.59
HMDERLAKLTPQERKILDLIAEGATNRQIGTELHLAEKTVKNYVSNMLMKLGMSRRTEAAVFAVKASIN | ≥ 0.43
HMDERLLRLYERELQFLREGADEFAQAYPKVAGHLGLNSQSMGDPFIERLLEGLGFLTARIQLQLESEF | -0.823
HMDEWFPVNDDYKFMVGDEVRTPDGLVKVVATHNDSATFYGKIITPIHDDVLKGETYEYRSYEAQVLA | -1.26
HMDEWKRKELWDAIARLPKIQRMVVTMRTTENLPYKEIAKIMNISENSAKVNYHHAVEALKIFF | 0.0454
HMDEYGEVQALQRAGQTSEALARADRHIAAHPNDPQMRFVKANLLSAGGRAGEAETLLVQLTRD | -0.176

Sequence | soluble fraction (log2)
HMDFDLIAIFEEQFARALSPIEINIIKEWKNSNYSDDMIVKALKEAVKSQVFNFRYIERILINWSQNG | -1.64
HMDFDVELTSAGTAKVKVIKAVREATGLGLKEAKDLVDNAPSIVKEGLDEAAANDLKAALEETGASVTL | 0.239
HMDFEEGAVKWFNTKKGYGFITRDQGDDIFVHFRNIKAQSRRSLTDGERVTFVVTEGDKGLQADHVSPV | -0.886
HMDFGHWAAHKLEQMSEYRLRHGEAVAIGIALDVLYSVRQGLLARPAAERILSLLERLGFTLFDPELKS | -0.291
HMDFLKSVDLSKYSKVESLILSHLSKGDFDIDDFIRSFSLGTDEVTRAIVSLEIEGIILRKGNRIFRKKS | 0.0153
HMDFMNSEIKKIVEDLKLTLQSLNYTKNEIKSILPVINKETDNLIKKEKYASFENLLRLAMNHLDNN | -0.929
HMDFTPDQIARLDDIISRYKDKPGGLIPVLEEAQVALEYLPIGVQKRIAKGLNLPLSRVYGVVTFYSFFTM | -0.451
HMDFVKGDTVVFIDAFMPDHLMTIHKVQGEGILLDGNHKFALAHLIRHASTVELNAKRRLSLTEQS | -0.685
HMDGASLLDIDGDGKVTPTIDGLLLMRWQFGTRGAALIGGISFPAGALRTTVNAIELHMRRLSETT | -1.52
HMDGDVAVKGGDGVLEVRLANAANVRVYNLAGRLMADYTGTELHMPLPKGVYMVVAGDNRTKVVV | -0.00794
HMDGEINPYTGREYVTNSVRMHPRRIGYVQVYSRKDHKWTDMTEWAFLGEQERKKVLLGKAYEPPVYL | 0.0599
HMDGEMRRKRILQLLSEQTKPLSGTALAKQFGVSRQVIVQDIALLKSKEPAIISTYRGYVLGR | 0.142
HMDGFAEFWSAYPKKVGKGAAEASWRKHRPPLQTVLDAVKRQAESDQWRKDGGQFIPNPATWLNQKRWEDD | -0.101
HMDGIIIPDVSGKSYAEAVATLNEKGFKVEKGEDAGSSLAKDLVSYTNPAAGNRAKSGATISVFVSTGANA | -0.0718
HMDGKTALQEIVASSGWSPPEYKVSESGPDHDKDFVAYAIVNGVAYPEGHGKSKREAEQVAARIAFEALSK | -0.00195
HMDGMRASDMVRAALAGAGKTQKELAEHMGWTPQNLSGRLKNNSLTFDELSKALHFAGYEVSMSDANGAG | -0.115
HMDGNVPSVEGKPLSGAKYILETYGYKTGTVTEVNSEDVPAGIVISQNPARGTTLANGGSVNLQVSLG | 0.238
HMDGPGAGGRFLAEDLGTGKMTLEALQRHYVTLVYSRTGKYEETARRLEIDRRTVKKYLDEELLAELRET | -0.0817
HMDGQGIRSITPEYYLSDSATKMPDASSSGWKSVPDDYIDKHYYWVRSKILWDDGTYTTTTPVL | -0.291
HMDGRVQATAEKLRAALDRLARSSVGSPMIERQLTVAALAREARVGRNAIYANHRDILDELIRVRQQRRA | -0.309
HMDGTAKVAHMLVNELETFNRLKKHEIAYMLHIQPETLSRILNKLTRNGTIEIEKNSVVILNIQELKEIY | -0.271
HMDGVNRDKIEYRLDDLYYLKGSDAPYTGKVFEEWSGQQRVETNYIDGKLDGLSESWHENGQKASEVNY | -0.831
HMDHFLRRFQVEGLNLEKLLRLAAEREMDLLQVRRSGRRMTGLVAEKRLPELEELAAQGGWALRLGEY | ≥ 0.43
HMDHSSLIKKLRLERGLSQKKLAQGISQRSTLASFENNATKISYNILIQYLDRMNVTLEEYQFMLDGNNL | -1.33
HMDHWQSVNSALELLEVSRRTLYDYISRKKLQTKKEGKYRYVWIDDDVIEEIKTSKSAYIEINN | -1.08

Sequence | soluble fraction (log2)
HMDIAATTVKQKIRTLLADEDAARPLSDQKIADALAEDGIDVARRTVAKYREELGIEPSWARKR | 0.0608
HMDIDLGAVEEQAVKGSGPGGQKMNKTSSGVLLRYRLGEELVLVKWTRERQHSLNRFLALRELVDEIEAR | -0.099
HMDIFFEKIFNILIGYNQNQENLISEKSILNFHLSHKSNSNFEYIPDEKTPKYIWKYLSNYNLLE | -0.477
HMDIFLPDVKGYDLIPSFRRHLPDIDVIAMTGYNTRALESAVRQQDVLFYMIKPFEASQLKEILEHLVK | -0.279
HMDIKEIIKNRRIELGLTLKEVATAVGVSEGTVSRWESGNITNMKRNKIAALAKTLQIPPTTI | 0.0875
HMDIKKHISATLKREMEKRGLNFMEFSTELGIPRTTLQGYLKGTSSPQADSLEELADKLGISPAELVSG | -0.434
HMDIMLLLYKNIKKRRLEIGMSQEELAQKTGYTSRSSIAKIEKGEVDLQLSKIKLFANALRVSQSELMG | -0.31
HMDIMTVGERVKKLAEKQGISLRELAKKAELSYNTVYSITRRGSERVAPDTISRLANALGVNVNELT | ≥ 0.43
HMDINEIILKVASEKKTFKTSDVLEALDNNYTKQHVSALISAMVKKGILVKAGSTAKSTYALPENASLL | 0.0858
HMDINIETLNYYVGKAKIPLSELRISVKNIDLFLSGEKQPTFNQLSSIAKKLNIPTGLLLLDESIEV | -1.34
HMDIPGITAVKPQAAFYMFPKIDVKKFNIVNDEKFALDLLQDKKILIVQGSGFNWKQPDHFRVV | 0.115
HMDIRVAHVDDDMSFGEAFAQARSQVGPGGVFEWHGKLYGTYTAEEWASMSPAERSQYQQAVFN | 0.105
HMDIVLPFSFAKRHGVVLSERQGETELLYLKGLPVRVLAEARRVLRQEFTVRQVEQAVFDKALSESYQN | -0.591
HMDIYLDDINRKILHLLSQGVKTKSLRDYIDLSMSAIEKRKKHLKDLFLIEDGKDETLLSEARKKGF | -0.398
HMDKAGWLPARVRLADYPALKQLAWQVQGVDELTPREALGIYERNWRHLDEAALLPRERNLIDALRLAFG | -0.16
HMDKEQVTFIFRDIDIALRSLDYPIKDIKNTLNIIKSEFSNSKSTELNEQKINFENILKEAISILENND | -0.969
HMDKFKDVGARIREARKVQKLSQADLAERLQISTSHMSDIENGKKNIGLDIFMRLTEALQVSADWLL | -0.567
HMDKFTYVVKKEDEQYQIKDILRHNFTFSSRLRKKLKQNNSIFLNGAETVGWATPKEGDIISVRLP | 0.219
HMDKKEFGKRLKNLRIRNKMSQQAMADSLGYTSRSTINKIEEGINEMSYDKIVRLMELYGLSRPDLGLEPI | -0.157
HMDKKTMFNEALAKLVSYATAHDNLITMEDVKSFFNGLIDDDSQYKLIYDYLSINKIEIKGFT | -0.704
HMDKLEKRILDYLLQKSAIDGSTILKISHREMAMDLGTAREVVTRILKKLETGGFVRQGENYLEILK | -0.456
HMDKPIFTLRENEVLYWASMGKTYAEIATIVGISVRTVKFHMGNVVSKLGVSNARQAIRLGVELDLITPMQ | -1.76
HMDKSFYETFEKIGHGDFDKGLNHVWQHANDGNGTATLLLSKLFLEFGDLDNFEKYLNISAEQSNPVAMKI | -0.191
HMDKSNEVLMNHYRKQEINQAKKRLEEEKMSIIQVLQLTNKEVITTDELLEALYISKEQLLDEIINTTQ | -1.02
HMDKSPVLQLNRDVPAGQQISADDFRTVEIGADGAFRSVPSSDLNAMVGSYAKVRLIAGTLLAREALQSG | -0.0884
